# Measurements taken from patent publication US20210388087A1 (Chugai, published 2021).
# Residue numbers refer to the chain shown, from its start. In names and notes the source's numbering stands.
# B1: CE115HA000 Y58K one-arm antibody (antibody, human IgG1, kappa, L234A L235A, N297A, name in Kabat numbering)
# heavy: QVQLVESGGGVVQPGRSLRLSCAASGFTFSNAWMHWVRQAPGKGLEWVAQIKAKSNNYATKYAESVKGRFTISRDDSKNSLYLQMNSLKTEDTAVYYCRYVHYGAYYGVDAWGQGTTVTVSSASTKGPSVFPLAPSSKSTSGGTAALGCLVKDYFPEPVTVSWNSGALTSGVHTFPAVLQSSGLYSLSSVVTVPSSSLGTQTYICNVNHKPSNTKVDKKVEPKSCDKTHTCPPCPAPEAAGGPSVFLFPPKPKDTLMISRTPEVTCVVVDVSHEDPEVKFNWYVDGVEVHNAKTKPREEQYASTYRVVSVLTVLHQDWLNGKEYKCKVSNKALPAPIEKTISKAKGQPREPQVYTLPPSRCELTKNQVSLSCAVKGFYPSDIAVEWESNGQPENNYKTTPPVLDSDGSFFLVSKLTVDKSRWQQGNVFSCSVMHEALHNHYTQKSLSLSPDYKDDDDK
# chain: EPKSSDKTHTCPPCPAPELLGGPSVFLFPPKPKDTLMISRTPEVTCVVVDVSHEDPEVKFNWYVDGVEVHNAKTKPREEQYNSTYRVVSVLTVLHQDWLNGKEYKCKVSNKALPAPIEKTISKAKGQPREPQVCTLPPSRDELTKNQVSLWCLVKGFYPSDIAVEWESNGQPENNYKTTPPVLDSDGSFFLYSKLTVDKSRWQQGNVFSCSVMHEALHNRYTQKSLSLSP
# light: DIVMTQSPLSLPVTPGEPASISCRSSQSLVHSNRNTYLHWYQQKPGQAPRLLIYKVSNRFSGVPDRFSGSGSGTDFTLKISRVEAEDVGVYYCGQGTQVPYTFGQGTKLEIKRTVAAPSVFIFPPSDEQLKSGTASVVCLLNNFYPREAKVQWKVDNALQSGNSQESVTEQDSKDSTYSLSSTLTLSKADYEKHKVYACEVTHQGLSSPVTKSFNRGEC
# B2: CE115HA000 Y97A one-arm antibody (antibody, human IgG1, kappa, L234A L235A, N297A, name in Kabat numbering)
# heavy: B1 heavy with K61Y, Y103A
# chain: B1 chain
# light: B1 light
# B3: CE115HA000 Y58N one-arm antibody (antibody, human IgG1, kappa, L234A L235A, N297A, name in Kabat numbering)
# heavy: B1 heavy with K61N
# chain: B1 chain
# light: B1 light
# B4: CE115HA000 Y59E one-arm antibody (antibody, human IgG1, kappa, L234A L235A, N297A, name in Kabat numbering)
# heavy: B1 heavy with K61Y, Y62E
# chain: B1 chain
# light: B1 light
# B5: CE115HA000 Y59A one-arm antibody (antibody, human IgG1, kappa, L234A L235A, N297A, name in Kabat numbering)
# heavy: B1 heavy with K61Y, Y62A
# chain: B1 chain
# light: B1 light
# B6: CE115HA000 Y59S one-arm antibody (antibody, human IgG1, kappa, L234A L235A, N297A, name in Kabat numbering)
# heavy: B1 heavy with K61Y, Y62S
# chain: B1 chain
# light: B1 light
# B7: CE115HA000 Y58Q one-arm antibody (antibody, human IgG1, kappa, L234A L235A, N297A, name in Kabat numbering)
# heavy: B1 heavy with K61Q
# chain: B1 chain
# light: B1 light
# B8: CE115HA000 Y59D one-arm antibody (antibody, human IgG1, kappa, L234A L235A, N297A, name in Kabat numbering)
# heavy: B1 heavy with K61Y, Y62D
# chain: B1 chain
# light: B1 light
# B9: CE115HA000 Y58S one-arm antibody (antibody, human IgG1, kappa, L234A L235A, N297A, name in Kabat numbering)
# heavy: B1 heavy with K61S
# chain: B1 chain
# light: B1 light
# B10: CE115HA000 Y58L one-arm antibody (antibody, human IgG1, kappa, L234A L235A, N297A, name in Kabat numbering)
# heavy: B1 heavy with K61L
# chain: B1 chain
# light: B1 light
# Target: T1, CD3 epsilon homodimer protein (UniProt P07766 23-126)
# T1 construct: immobilized on Sensor chip CM4 by amine coupling; also called CD3 (CD3 epsilon)
# Experiment: SPR (Biacore T200), CD3 epsilon homodimer on CM4 chip, one-arm antibody as analyte, 25 C;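 further: homodimer attached to the sensor surface via amine coupling, HBS-EP+ used as running buffer during binding runs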
# T1 sequence (P07766 23-126): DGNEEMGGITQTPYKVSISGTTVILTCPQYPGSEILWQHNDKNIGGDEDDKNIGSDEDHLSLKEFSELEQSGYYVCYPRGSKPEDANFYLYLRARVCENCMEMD
row,ratio of amounts bound (altered form / CE115HA000),Binder
1,0.3,B1
2,0.16,B2
3,0.33,B3
4,0.66,B4
5,0.85,B5
6,0.94,B6
7,0.19,B7
8,0.7,B8
9,0.18,B9
10,0.27,B10
